The target of experiment [1] is T1, Recombinant Human DLL4 (R&D Systems Cat#1506-D4/CF) (human, UniProt Q9NR61 27-529).
T1 construct: Bought recombinant protein; also called rHuman DLL4; delta-like protein 4
Briefly: MSD Multispot ECL, antigen spotted on plate, Fab 8.1 nM; blank spot 435.

The target of experiment [2] is T2, rHuman ErbB2/Fc Chimera, CF (R&D Systems Cat#1129-ER) (human, UniProt P04626 23-652).
T2 construct: Bought reagent; also called human epidermal growth factor 2 receptor; Fc part of the bought chimera not given
The description is as above.

Experiment [3] has as its target T3, rHuman HGF R/c-MET/Fc Chimera, CF (R&D Systems Cat#358-MT/CF) (human, UniProt P08581 25-932).
T3 construct: Bought reagent; also called HGF R/Fc; hepatocyte growth factor receptor; Fc part of the bought chimera not given
The experiment is described as above.

The target in experiment [4] is T4, rHuman Notch-1/Fc Chimera, CF (R&D Systems Cat#3647-TK) (human, UniProt P46531 19-526).
T4 construct: Bought reagent; Fc part of the bought chimera not given
The description is as above.

Experiment [5] addresses T5, rHuman Erythropoietin R/Fc Chimera, CF (R&D Systems Cat#963-ER) (human, UniProt P19235 25-250).
T5 construct: Bought reagent; also called EPO R/Fc; EPO R; Fc part of the bought chimera not given
T5 sequence (looked up): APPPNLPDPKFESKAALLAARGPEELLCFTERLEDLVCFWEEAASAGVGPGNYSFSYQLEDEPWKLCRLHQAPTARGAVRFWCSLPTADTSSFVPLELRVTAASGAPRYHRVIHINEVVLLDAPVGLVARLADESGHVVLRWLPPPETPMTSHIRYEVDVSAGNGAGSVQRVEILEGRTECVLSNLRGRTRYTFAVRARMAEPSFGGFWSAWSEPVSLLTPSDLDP
The experiment is described as above.

The target of experiment [6] is T6, Recombinant Human DLL4 (R&D Systems Cat#1506-D4/CF) (human, UniProt Q9NR61 27-524).
T6 construct: Bought recombinant protein; also called rHuman DLL4; delta-like protein 4
Kind of experiment: MSD multispot ECL, antigen spotted, Fab 595.8 nM; blank spot 285.

Experiment [7] has as its target T7, rHuman CD44/Fc Chimera, CF (R&D Systems Cat#3660-CD) (human, UniProt P16070 21-220).
T7 construct: Bought reagent
Described as above.

Experiment [8] deals with T8, Recombinant Human DLL4 (R&D Systems Cat#1506-D4/CF) (human, UniProt Q9NR61 27-524).
T8 construct: Bought recombinant protein; also called delta-like protein 4; rHuman DLL4
Kind of experiment: Multispot ECL (MSD) titration; antigen spotted on plate; Fab 14.5 nM; blank spot 117.

Experiment [9] addresses T9, rHuman IGF-1 sR (IGF-1 sR), CF (R&D Systems Cat#391-GR) (human, UniProt P08069 31-932).
T9 construct: Bought soluble receptor; also called insulin-like growth factor-1 soluble receptor
Described as above.

Experiment [10] concerns the target T10, rHuman ErbB2/Fc Chimera, CF (R&D Systems Cat#1129-ER) (human, UniProt P04626 23-652).
T10 construct: Bought Fc chimera; also called human epidermal growth factor 2 receptor; Fc part of the bought chimera not given
The experiment is described as above.

The target in experiment [11] is T11, rHuman CD44/Fc Chimera, CF (R&D Systems Cat#3660-CD) (human, UniProt P16070 21-220).
T11 construct: Bought Fc chimera; Fc part of the bought chimera not given
The experiment is described as above.

In experiment [12] the target is T12, rHuman P-Cadherin/Fc Chimera, CF (R&D Systems Cat#861-PC) (human, UniProt P22223 108-654).
T12 construct: Bought Fc chimera; Fc part of the bought chimera not given
The experiment is described as above.

For experiment [13], the target named is T13, rHuman Notch-1/Fc Chimera, CF (R&D Systems Cat#3647-TK) (human, UniProt P46531 19-526).
T13 construct: Bought Fc chimera; Fc part of the bought chimera not given
Described as above.

For experiment [14], the target named is T14, rHuman Erythropoietin R/Fc Chimera, CF (R&D Systems Cat#963-ER) (human, UniProt P19235 25-250).
T14 construct: Bought Fc chimera; also called EPO R/Fc; EPO R; Fc part of the bought chimera not given
T14 sequence (looked up): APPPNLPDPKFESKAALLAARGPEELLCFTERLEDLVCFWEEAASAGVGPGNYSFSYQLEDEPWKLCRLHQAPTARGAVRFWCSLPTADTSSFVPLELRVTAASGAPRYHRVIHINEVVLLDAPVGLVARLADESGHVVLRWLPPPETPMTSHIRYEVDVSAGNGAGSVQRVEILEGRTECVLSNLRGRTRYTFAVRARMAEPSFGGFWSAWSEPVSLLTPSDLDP
The experiment is described as above.

The target in experiment [15] is T15, Recombinant Human DLL4 (R&D Systems Cat#1506-D4/CF) (human, UniProt Q9NR61 27-524).
T15 construct: Bought recombinant protein; also called rHuman DLL4; delta-like protein 4
Briefly: Multispot ECL (MSD), antigen spotted on plate, Fab 250 nM; blank spot 590.

Experiment [16] addresses T16, rHuman Erythropoietin R/Fc Chimera, CF (R&D Systems Cat#963-ER) (human, UniProt P19235 25-250).
T16 construct: Bought recombinant protein; also called EPO R/Fc; Epo R; Fc part of the bought chimera not given
T16 sequence (looked up): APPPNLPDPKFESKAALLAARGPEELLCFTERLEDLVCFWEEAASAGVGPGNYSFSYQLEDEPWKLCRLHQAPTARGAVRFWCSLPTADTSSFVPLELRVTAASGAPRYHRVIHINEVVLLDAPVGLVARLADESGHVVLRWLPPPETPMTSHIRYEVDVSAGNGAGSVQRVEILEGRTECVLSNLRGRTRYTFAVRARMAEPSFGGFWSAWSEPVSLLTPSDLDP
The experiment is described as above.

The target of experiment [17] is T17, rHuman IGF-1 sR, CF (R&D Systems Cat#391-GR) (human, UniProt P08069 31-932).
T17 construct: Bought recombinant soluble receptor; also called insulin-like growth factor-1 soluble receptor
The description is as above.

Experiment [18] has as its target T18, rHuman Notch-1/Fc Chimera, CF (R&D Systems Cat#3647-TK) (human, UniProt P46531 19-526).
T18 construct: Bought recombinant protein; Fc part of the bought chimera not given
The experiment is described as above.

Here are results for 4 molecules from patent US20120316071A1 (published 2012).

T3 sequence (P08581 25-932, change not shown): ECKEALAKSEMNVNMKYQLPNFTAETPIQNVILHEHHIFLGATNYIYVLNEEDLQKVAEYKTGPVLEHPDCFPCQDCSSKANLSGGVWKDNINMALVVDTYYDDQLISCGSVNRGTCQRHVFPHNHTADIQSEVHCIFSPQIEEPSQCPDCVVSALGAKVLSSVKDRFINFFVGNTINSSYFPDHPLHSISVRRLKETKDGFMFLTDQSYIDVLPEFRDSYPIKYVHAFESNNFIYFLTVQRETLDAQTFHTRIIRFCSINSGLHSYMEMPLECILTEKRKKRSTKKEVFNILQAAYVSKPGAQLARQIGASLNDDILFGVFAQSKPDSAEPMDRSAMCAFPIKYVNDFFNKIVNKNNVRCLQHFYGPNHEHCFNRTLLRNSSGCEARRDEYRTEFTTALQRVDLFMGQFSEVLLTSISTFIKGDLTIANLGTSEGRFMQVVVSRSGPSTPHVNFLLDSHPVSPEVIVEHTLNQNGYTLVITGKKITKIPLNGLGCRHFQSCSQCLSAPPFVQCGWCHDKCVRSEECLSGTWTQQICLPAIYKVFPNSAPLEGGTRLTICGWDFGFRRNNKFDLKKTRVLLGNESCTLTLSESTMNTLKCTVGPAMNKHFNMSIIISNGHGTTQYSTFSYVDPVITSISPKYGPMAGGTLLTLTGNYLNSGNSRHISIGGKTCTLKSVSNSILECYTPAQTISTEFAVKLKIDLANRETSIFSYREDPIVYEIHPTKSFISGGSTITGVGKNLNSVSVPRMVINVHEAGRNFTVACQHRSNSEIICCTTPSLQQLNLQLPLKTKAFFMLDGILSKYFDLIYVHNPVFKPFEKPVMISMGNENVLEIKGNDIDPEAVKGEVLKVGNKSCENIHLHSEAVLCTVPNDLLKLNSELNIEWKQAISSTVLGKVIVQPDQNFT

B1: Fab VH1-8_IGHD2-2*01_IGHJ6*01 & L12_IGKJ1*01 (Fab, V domains shown)
VH: QVQLVQSGAEVKKPGASVKVSCKASGYTFTSYDINWVRQATGQGLEWMGWMNPNSGNTGYAQKFQGRVTMTRNTSISTAYMELSSLRSEDTAVYYCARGGYCSSTSCYADYYYYYGMDVWGQGTTVTVSS
VL: not shown
In the case of B1, the ECL signal in experiment [1] is 1550; in experiment [2], 557; in experiment [3], 551; in experiment [4], 612; in experiment [5], 660.

B2: Fab VH1-46_IGHD6-6*01_IGHJ1*01 & L6_IGKJ1*01 (Fab, V domains shown)
VH: QVQLVQSGAEVKKPGASVKVSCKASGYTFTSYYMHWVRQAPGQGLEWMGIINPSGGSTSYAQKFQGRVTMTRDTSTSTVYMELSSLRSEDTAVYYCAREEYSSSSAEYFQHWGQGTLVTVSS
VL: not shown
notes: Only variable domains are tied to the molecule; Tested as a Fab made in E. coli: heavy chain from Plasmid A (CH1 constant region, His6 and Flag tags), kappa light chain from Plasmid C (kappa CL); also called parent Hit Fab against DLL4; VH1-46_IGHD6-6*01_IGHJ1*01 & L6_IGKJ1*01 (parental)
In the case of B2, the ECL signal in experiment [6] was found to be 17200 ECL signal; in experiment [7] it was 372 ECL signal.

B3: Fab VH1-46_IGHD6-13*01_IGHJ4*01 & O1_IGKJ1*01 (Fab, V domains shown)
VH: QVQLVQSGAEVKKPGASVKVSCKASGYTFTSYYMHWVRQAPGQGLEWMGIINPSGGSTSYAQKFQGRVTMTRDTSTSTVYMELSSLRSEDTAVYYCAREGYSSSWYDYFDYWGQGTLVTVSS
VL: DIVMTQTPLSLPVTPGEPASISCRSSQSLLDSDDGNTYLDWYLQKPGQSPQLLIYTLSYRASGVPDRFSGSGSGTDFTLKISRVEAEDVGVYYCMQRIEFPSWTFGQGTKVEIKR
notes: Germline library Fab expressed in E. coli; VH was cloned into Plasmid A (CH1 constant region, His6 and Flag tags); The kappa VL was cloned into Plasmid C (kappa CL)
Turning to B3, the ECL signal in experiment [8] is 1150; in [9] it was 234; in experiment [10], 274; in [11] it was 212; in experiment [12], 277; in [13] it was 317. For the same molecule, in [14], the ECL signal was determined as 660.

B4: Fab VH1-46_IGHD6-13*01_IGHJ4*01 & B3_IGKJ1*01 (Fab, V domains shown)
VH: QVQLVQSGAEVKKPGASVKVSCKASGYTFTSYYMHWVRQAPGQGLEWMGIINPSGGSTSYAQKFQGRVTMTRDTSTSTVYMELSSLRSEDTAVYYCAREGYSSSWYDYFDYWGQGTLVTVSS
VL: not shown
notes: Germline Fab made in E. coli; VH was cloned into Plasmid A (CH1, His6 and Flag tags) and the kappa VL into Plasmid C (kappa CL)
Consider B4, for which the ECL signal in experiment [15] stood at 1560; in [16], 8540; in experiment [17], 993; in experiment [18], 1240.
